Reference: article PMC8826447 (Nature Communications, 2022)
Ends that are not written are not given here. * marks the point of attachment. FITC = O=C1OC2(c3ccc(O)cc3Oc3cc(O)ccc32)c2ccc(NC(=S)*)cc21; βAla = NCCC(=O)O

Tests used:
[1] = biological target: T1, ASF1a-NT domain (ASF1a residues 1–155) (human, UniProt Q9Y294 1-155); test: fluorescence polarisation; competition: 63 nM ASF1a 1–155 with 5 nM FITC tracer peptide and rising unlabeled peptide (15.6 nM to 256 μM for the TLK2 peptide); 50 mM Tris pH 8.0, 100 mM NaCl, 10 mM MgCl2, 1.2 mM DTT, 0.012% Brij-35, 0.2 mg/ml BSA; 295 K; details: both partners purified
T1 construct: anti-silencing factor 1a (ASF1a), human, N-terminal immunoglobulin-like domain, residues 1-155; Cloned into pGEX4T-1 as an N-terminal GST fusion and eluted with glutathione; No cleavage step is described; the structures are described with ASF1a residues only (151-155 residues per chain); also called ASF1a 1–155; ASF1-NT; source: E. coli BL21 (DE3) Rosetta 2, purified (glutathione-Sepharose, SEC)

[2] = biological target: T1, ASF1a-NT domain (ASF1a residues 1–155); test: differential scanning fluorimetry; melting temperature of ASF1a 1–155 with or without 160 μM TLK2 peptide; 20 mM HEPES, 250 mM NaCl, 0.1 mM TCEP, pH 7.5; SYPRO orange; ramp 4 to 95 °C; details: both partners purified

T1 sequence (Q9Y294 1-155): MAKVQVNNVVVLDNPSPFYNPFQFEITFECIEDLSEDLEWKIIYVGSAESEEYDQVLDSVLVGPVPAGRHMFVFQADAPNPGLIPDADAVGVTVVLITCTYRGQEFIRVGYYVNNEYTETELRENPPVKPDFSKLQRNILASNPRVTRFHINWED

Row | binding result [1] | EC50 [1] [µM] | Binder | increase of melting temperature (160 μM peptide) [2] [°C]
1 | binds |  | {FITC-βAla}-LHSLDPRRQELLEARFTG (TLK2, human, N-terminal stretch; also called fluorescently labeled TLK2 peptide; TLK2 fluorescent peptide; source: synthetic peptide (Tufts University Core Facility, purified by HPLC)) [fluorescein-labeled TLK2 tracer peptide (FITC-βAla-LHSLDPRRQELLEARFTG)] | 
2 | binds |  | TIMPKDIQLARRIRGERA (also called Histone H3 peptide; source: synthetic peptide (Genscript, >98% purity)) [histone H3.1 peptide (ASF1-binding fragment)] | 
3 |  | 2.2 | EELHSLDPRRQELLEARFTGV (TLK2, human, residues 3-23; also called N-terminal TLK2 peptide; unlabeled TLK2 peptide; source: synthetic peptide (Genscript, >98% purity)) [TLK2 peptide spanning residues 3–23] | ~5
